# Assay results reported in the nanobody polyreactivity screen of Harvey et al. (2022).
# Experiment: yeast display, Sf9 membrane polyspecificity reagent, FACS + sequencing; frameworks hold sequencing errors
# In short: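 Nanobodies from a synthetic yeast display library (Saccharomyces cerevisiae BJ5465), induced 36–48 hours with galactose, were stained 1 hour at 4 °C with 10% biotinylated, detergent-solubilized Sf9 membrane reagent, enriched on streptavidin microbeads, then FACS-sorted. Anti-HA (expression) and streptavidin (reagent binding) fluorescence set low and high (top ~1%) gates. Polyreactivity labels come from the gate of origin. Genes were colony-PCR amplified, MiSeq 2 × 250 sequenced and filtered by CDR length.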
row,Sequence,polyreactivity (PSR sort gate)
1,QVQLVESGGCLVQAGGSLRLSCAASGSIFDGNTMGWYRQAPGKERELVAAITWSGGSTYYADSVKGRFTISRDNAKNTVYLQMNSLKPEDTAVYYCAAEYWDSDPYDYWGQGTQVTVSS,low polyreactivity
2,QVQLVESGGCLVQAGGSLRLSCAASGSIFKWYAMGWYRQAPGKERELVAAITRGGSTNYADSVQGRFTISRDNAKNTVYLQMNSLKPEDTAVYYCNAVYTYRSGFGYWGQGTQVTVSS,low polyreactivity
3,QVQLVESGGCLVQAGGSLRLSCAASGSIFPPYAMGWYIPAPGKERELVAAISRRGGSTYYADSVKGRFTISRDNAKNTVYLQMNSLKPEDTAVYYCAARGGQMEYWGQGTQVTVSS,high polyreactivity
4,QVQLVESGGCLVQAGGSLRLSCAASGSIFPWYAMGWYRQAPGKERELVADISYSGSGTYYADSVKGRFAISRDNGKNNVYLQMTSLKPEDSAVYYCNAQRAEWYPVGRYEYWGQGSQVTVSS,low polyreactivity
5,QVQLVESGGCLVQAGGSLRLSCAASGSIFRYYAMGWYRQAPGKDRELVAAISWSSGRTYYADSVKGRFTISRDNAKNTVYLQMNSLKPEDTAVYYCAAGVPGYPRYEYDYWGQGTQVTVSS,high polyreactivity
6,QVQLVESGGCLVQAGGSLRLSCAASGSIFSANAMGWYRQAPGKETELVAAITRGGSTNYADSVKGRFTIARDNAKNTVYLQMNSLKPEDTAVYYCNDEPDPYSSGRVRRDYDYWGQGTQVTVSS,low polyreactivity
7,QVQLVESGGCLVQAGGSLRLSCAASGSIFVSYAMGWYRQAPGTERELVAAITGRTGSTYYADSVKGRFTISRDNAQNTVYLQMNSLKPEDTEVYYCAARHKPHHRYDYWGQGTQVTVSS,low polyreactivity
8,QVQLVESGGCLVQAGGSLRLSCAASGSIFYSYAMGWYRQAPGKEMELVADISSDGSTNYADSVKGRFTISRDNAKNTVYLQMNSLKPEDTAVYYCAKKPSSARYVTIGFDYWGQGTQVTVSS,low polyreactivity
9,QVQLVESGGCLVQAGGSLRLSCAASGSTFDYYMGWYRQAPGKERELVAAITYSGGSTYYADSVKGRFTISRDNAKNSVYLQMNSLNPEDTAVYYCAKDRSTFDDFYSNYYWGQGTQVTVSS,low polyreactivity
10,QVQLVESGGCLVQAGGSLRLSCAASGSTFENYAMGWYRPAPGKERELVATISIDGRTNYADSVKGRFTISRDNAKNTVFLQMNSLKPEDTGVYYCAARPYWRHRYDYWGQGTQVTVSS,low polyreactivity
11,QVQLVESGGCLVQAGGSLRLSCAASGSTFFSYAMGWYRQAPGKESEFVAANTYSSGRTYYADSVKGRFTISRDNAKNTVYLQMHSLKAEDSAVYSCSTPGFVWGRGYDYWGQGTHVTVSS,high polyreactivity
12,QVQLVESGGCLVQAGGSLRLSCAASGSTFRGNDMGWYRQAPGKEREFVAAITVSGGSTYYADSVKGRFTISRDNAKNTVYLQMNSLKPDDTAVYFCDARYLRYSSKTIQNEDYWGLGTQVTVSS,high polyreactivity
13,QVQLVESGGCLVQAGGSLRLSCAASGSTFSWYTMGWYRQAPGKERELVAAITRGGTTYYADSVKGRFTISRDNAKNTVYLQMNSLKPEDSAVYYCAARYSRDVRMGYWGQGTQVTVSS,high polyreactivity
14,QVQLVESGGCLVQAGGSLRLSCAASGSTFVKIVMGWYRQAPGKERELVAGITRGGSTYYADSVKGRFTISRDNAKNTVYLQMNSLKPEDTPVYYCAKRYAWDRDYWGQGTQVTVSS,high polyreactivity
15,QVQLVESGGCLVQAGGSLRLSCAASGYIFGYNAMGWYRQAPGKERELVAAISYSGGSTYYADSVKGRFTISRDNAKNTVYLQMNSLKPVDTAVYYCAAGAKWIYHYYSSLQYGYWGQGTQVTVSS,high polyreactivity
16,QVQLVESGGCLVQAGGSLRLSCAATGIIFDGYAMGWYRQAPGKERELVAAISWSGGSTYYADSVKGRFTISRDNAKNTVYLQMNSLKPEDTAVYYCAAALPGWYHDDYDYWGQGTQVTVSS,low polyreactivity
17,QVQLVESGGCLVQAGGSLRLSCAATGRIFKRYVMGWYRQAPGKERELVAAISQRGGSTNYADSVKGRFTISRDNAKNTVYLQMNSLKPEDTAVYYCAAGFFSRYDYWGQGTQVTVSS,high polyreactivity
18,QVQLVESGGCLVQAGGSLRLSCCASARTFWYYTMGWYRQAPGKERELVASISRVTSTYYADSVKGRLTSSRDNAKNTVYLQMNSLKPEDTAVYYCAGLQIRRSYWRTFYWGQGTQVTVSS,low polyreactivity
19,QVQLVESGGCLVQAGGSLRLSCYASGIIFAWYAMGWYRQAPGKERQLVAAISYSGCTTYYADSVKWRFTISRDNAKNTVYFKMNSLKPVDTAVYYCAALLHHFFTYDYWGQGTQVTVSS,low polyreactivity
20,QVQLVESGGCLVQAGGSLRLSCYASGSIFVDKAMGWFRQPPGKERELVAAITDSGGRTYYADSVKGRFTISRDNAKNTVYLQKNSLKPEDTAVYYCAAGQSGYAGRRPAFGSWGQGTQVTVSS,low polyreactivity
21,QVQLVESGGCLVQAGGSLRLSSAASGFIFSRYAMGWYRQATGKERELVASISWGGGSTSYADSVKGRFTISRDNAKYTVYLQMNSLKPEDTAVYYCNARVRSHRFNYWGQGTQVTVSS,high polyreactivity
22,QVQLVESGGCLVQAGGSLSLSCAASGSTFVAYAMGWYRQAPGKESELVAAISKSGVRTYYADYVKGRFTISRDNAKNTVYLQMNSLKPEDSAFYYCAALTYYSQVTSSVSLQQYGYWGQVTQVTVSS,low polyreactivity

row,Sequence,polyreactivity (PSR sort gate)
1,QVQLVESGGCLVQAGVSLRLSCAASGRIFAYYAMGWYRQAPRKERELVAAISRSGVSTYYADSVKGRFTISRDNAKNTVYIQMNSLKPEDTAVYYCAARWRSGFTSGDYWGQGTQVTVSS,low polyreactivity
2,QVQLVESGGCLVQEGGSLRLSCAASGRIININAMGWSRHAPGKEREMVAAITWRSGSTYYADSVKGRFTISRDNAKNTVYLQLNSLKPEDTAVYFCAADFSQTRRPIRFYYWGQGTQVTVSS,high polyreactivity
3,QVQLVESGGDLVQAGGSLRLSCAASGGIFQKYVMGWYRQAPGKERELVARITSVGSTYYADSVKGRFTISRDNAKNTVYLQMNSLKPVDTAVYYCNAELYRRSQGYRFTAFDYWGQGTQVTVSS,low polyreactivity
4,QVQLVESGGDLVQAGGSLRLSCAASGYTFIVKAMGWYRQAPGKERELVAGISYRGGRTFYADSVKGRFTISRDNAKNNVYLQMNSLKPEDTAVYYCAARKTGIPFYNYDYWGQGTQVTVSS,low polyreactivity
5,QVQLVESGGGEVQAGGSLRLSCAASGIIFVDYVLGWYRQAPGTEMELVASIDGSGGSTNDADSVKGRFTISRDNAKNTVYLQLNRLKPEDTAVYYCTADNILYWSTLDYWGQGTHVTVSS,low polyreactivity
6,QVQLVESGGGFGQAGGSLRLSCAASGLIFRWYAMGWYRQAPGKERELVAAISWSGASTYYADSVKGRFTISRDNAKNTVYLQMNSLKPEDTAVYYCAADSAYWTYEYWGQGTQVTVSS,high polyreactivity
7,QVQLVESGGGFVQAGGSLRLSCAASGFIFWLNAMGWYRQAPGKERELVAASSIGGRTNYADSVKGRFTISRDNAKNTVYLQMNSLTPEDTAVYFCNNDYRSVYKGRGFDYWGQGTQVTVSS,low polyreactivity
8,QVQLVESGGGFVQAGGSLRLSCAASGFIFYMFAMGWYRQAPGKERELVAAITSRGGSTFYADSVKGRFTISRDNAKNTVYLQMNSLKPEDTAVYYCAAVRDLYTYRLGYWGQGTQVTVSS,high polyreactivity
9,QVQLVESGGGFVQAGGSLRLSCAASGFTFGYYTMGWYRQAPGKERELVAAITYRGGRTYYADSVKGRFTISRDNAKNTVYLQLNSLKPEATAVYYGAARLLGKTGRTDSGAEGDYWGQGTQVTVSS,high polyreactivity
10,QVQLVESGGGFVQAGGSLRLSCAASGFTFYKYAMGWYRQAPGQERELVAAITRGGGSTYYADSVKGRFTISRDHAQNPVYLQKNRLIPEDPAVYYCNVLYGYGTDVSRVDYWGQGTQVTVSS,high polyreactivity
11,QVQLVESGGGFVQAGGSLRLSCAASGITFYSNAMGWYRQAPGKERELGAAISTTGGRTYYADSVKRRFTISRDNAKNTVYLHMNSLKPEDTAVYYCTKAWGRGSLTEPYDYWGQGTQVTVSS,high polyreactivity
12,QVQLVESGGGFVQAGGSLRLSCAASGRICGYYAMGWFRQAPGKERELVAAISSSGGSTYYADSVKGRFTISRDTAKNTVYLQINSQKPEYTAVYYCNVDWYDNGYGGYDYWRQGTQVTVSS,low polyreactivity
13,QVQLVESGGGFVQAGGSLRLSCAASGRIFGPYAMGWYRQAPGKERELVAVITNSGSTNYADSVKGRFTISRDNAKNTVYLQMNSLKPEDTAVYYCNRVEGGAYGSNFDYWGQVTQVTVSS,high polyreactivity
14,QVQLVESGGGFVQAGGSLRLSCAASGRIFKWYAMGWYIQAPGKERELVAAITSGGSTYYADSVKGRFTISRDNAKNTVYLQMNSLKPEDTAVYYCNTALTRWYNQYDYWGQGTLVTVSS,high polyreactivity
15,QVQLVESGGGFVQAGGSLRLSCAASGRIFRTNAMGWYRQAPGKERELVAAITSSGTRTYYADSVKGRFTISRDNAKNTVYLQMNSLKPEDTAVYYCAAGGGHSMYYWGQGTQVTVSS,high polyreactivity
16,QVQLVESGGGFVQAGGSLRLSCAASGRTIPYYAMGWYRQARGKEWELVATISTGDSTYYADSVKGRFTISRDNAKNTLYLQMNSLKPEATAVYSCAKDRYTYWSVHAFRRLDYWGKGTQVTVSS,low polyreactivity
17,QVQLVESGGGFVQAGGSLRLSCAASGSIFYLYAMGWYRQAPGKERELVAAITSIGGSTYADSVKGRFTISRDNAKYTVYLQMNSLKPEDTAVYYCATYVAYHRGYRTYDQWGQGTQVTVSS,low polyreactivity
18,QVQLVESGGGFVQAGGSLRLSCAASGSTCDGYSMGWYRQAPGKERELVAGISTSGGSTYYADSVKGRFTISRDNAKNTVYLQMNSLKPEDTAVYYCAAEWFDQVKDRAADYISYEYWGQGTQVTVSS,low polyreactivity
19,QVQLVESGGGFVQAGGSLRLSCAASGSTFDGYAMGWYRQAPGKERELVAAITSSDGSTYYADSVKGRFTISRDNAKNTVYLQMNSLKPEDTAGYSCAAAPDWKDSLPPDMDYWGQGTQVTVSS,low polyreactivity
20,QVQLVESGGGFVQAGGSLRLSCAASGSTFDYNTMGWYRQAPGKERELVAAISESGGSTYYADSVKGRFTISRDNAKNTVYLQMNSLKPEDTAVYYCAADTIGYHYWYDYWGQGTQVTVSS,low polyreactivity
21,QVQLVESGGGFVQAGGSLRLSCAASGSTFSYYAMGWYRQAPGKERELVAAINWRGTNTYYADSVKGRFTISRDNAKNTVYLQMNSLKPEDTAVYYCNKESYRSSSPYNYWGQGTQVTVSS,high polyreactivity
